# In the supplement of paper PMC10724198:
# ± gives the standard deviation of the averaged measurements.
# System: Saccharomyces cerevisiae
# Assay: protein stability index of tFT-peptide fusion (C-terminal peptide) (PSI (0-1 scale)); higher = more stable (slower turnover)
# Conditions: genetic background: wild type; temperature: 30 C
# 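Further: PSI is a weighted mean of sequencing reads over stability bins, variants kept only with over 10 reads, mCherry proximal and sfGFP distal, peptide attached via GGGS linker.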
row,Sequence,protein stability index
1,ILGVVLRLCNCQ,0.7834 ± 0.0055
2,AWCLLTRWDLLL,0.609 ± 0.0014
3,VQGFYPVSAEGG,0.674 ± 0.022
4,TVKSCGRTLFSW,0.6874 ± 0.0051
5,TNGVNHIDAHGQ,0.645 ± 0.018
6,PPPHPPPRLPSP,0.604 ± 0.078
7,SIQVFDTYIITD,0.697 ± 0.068
8,FTPPPLLLPPPP,0.698 ± 0.0037
9,VRGVCLWGGVVG,0.641 ± 0.099
10,VGWCPLVGGSGQ,0.753 ± 0.039
11,KPRFRATPRQTT,0.713 ± 0.037
12,RCEGRRIEQSGK,0.7037 ± 0.0049
13,GVVWMSCGGWWG,0.7545 ± 0.0042
14,LFSHLLFPWLSR,0.7545 ± 0.0048
15,GCLCWVLSGRGA,0.68 ± 0.035
16,HSPSSLCHPSTG,0.727 ± 0.098
17,PGIGMVCAVAEG,0.687 ± 0.0082
18,WGGGGRGWGSRG,0.684 ± 0.057
19,PHSPPSLSPTPP,0.685 ± 0.06
20,ILQGENKEGINT,0.668 ± 0.035
21,RLLGSSPAVLLY,0.628 ± 0.062
22,LPNLGWTNSSIE,0.667 ± 0.066
23,TCTIQSEDFHEI,0.707 ± 0.063
24,YPTLHEPHSPAL,0.738 ± 0.052
25,VGLAVWAAKLGR,0.739 ± 0.018
26,PFGSSPLCGSSF,0.683 ± 0.032

row,Sequence,protein stability index
1,EFLVSVRPFASP,0.696 ± 0.032
2,TQSSADCFTLDA,0.719 ± 0.052
3,RGLRVWWGLVGV,0.633 ± 0.044
4,HRPDGTSRKSGA,0.662 ± 0.024
5,AKYPAQASTEPL,0.702 ± 0.028
6,FDSYVNHRLNRD,0.608 ± 0.057
7,LPPSSCPPPPTP,0.702 ± 0.068
8,FGLPGGVTVVTW,0.757 ± 0.14
9,GSVGFRTGRHLV,0.615 ± 0.063
10,VCSEARRKSVAL,0.673 ± 0.02
11,TVIKMEKKKDGG,0.6691 ± 0.0047
12,KKTSQKQKGKRQ,0.671 ± 0.12
13,KCRGRGRQEAFE,0.6643 ± 0.0018
14,SAQHPSTRHRPP,0.6 ± 0.035
15,RMATGNPAPHPP,0.735 ± 0.04
16,PCAPPTPAPLHP,0.6687 ± 0.0048
17,QQPPSSGTPDNH,0.703 ± 0.027
18,VVFFPVLSYFFR,0.649 ± 0.064
19,AQTVNNALAKPI,0.6551 ± 0.0049
20,RKEKKMKITKRC,0.691 ± 0.044
21,HMCSTYGKLRLD,0.622 ± 0.052
22,LAPPTTAGPRPP,0.599 ± 0.01
23,RKFLCKSPIECS,0.574 ± 0.015
24,WMDNTKKGNKDS,0.736 ± 0.06
25,CGVVSSSVDCIN,0.699 ± 0.028
26,RAVFLCVWDYSG,0.597 ± 0.13

row,Sequence,protein stability index
1,GSSPVWRVAGAG,0.721 ± 0.061
2,FESGINWLLSDK,0.672 ± 0.06
3,PIGFSHISFSPS,0.645 ± 0.1
4,PSTLLTFAISIP,0.666 ± 0.045
5,LRGAWRISIEGG,0.666 ± 0.036
6,NRAIVAYFPGMF,0.666 ± 0.042
7,LGLQHPSAWLFP,0.678 ± 0.045
8,RAAFNPCYTIDF,0.729 ± 0.025
9,GCGSVVVGVGGG,0.652 ± 0.028
10,RACDQPSGVCNV,0.669 ± 0.038
11,GSGDRSGCGWRG,0.678 ± 0.025
12,LPSLLIHLVSQT,0.668 ± 0.02
13,RKEQKGKGKEGG,0.697 ± 0.024
14,DKCRWWRHGVWR,0.687 ± 0.019
15,DVPKSGLEVWRR,0.627 ± 0.067
16,RLPVKQQVLPDK,0.6783 ± 0.0062
17,HLFWSRGICFFR,0.631 ± 0.062
18,AGAGLGVVLGWW,0.684 ± 0.017
19,RKKGRKKKQDKN,0.689 ± 0.023
20,FFAPSRLHHLSL,0.772 ± 0.071
21,TDYSSPKTSLSR,0.668 ± 0.056
22,DSIVWVGVTYFL,0.553 ± 0.012
23,GGGARCGGGCRV,0.684 ± 0.03
24,LTYFSDRFVTRV,0.6579 ± 0.0051
25,NCGGQGKEDGCK,0.621 ± 0.013
26,PFIDCEHIRGFN,0.735 ± 0.046

row,Sequence,protein stability index
1,TLFTRRSIMKGN,0.62 ± 0.068
2,RSALFLLTLVPI,0.565 ± 0.018
3,TTTYQLSQTITI,0.646 ± 0.041
4,FSFVTFYSICDV,0.528 ± 0.012
5,KTENGRSNSETR,0.686 ± 0.074
6,FANKLYSVFMDN,0.655 ± 0.13
7,SLALSSPLPPPP,0.735 ± 0.042
8,PWRLFVTSGSPA,0.714 ± 0.048
9,RGARGGSRGGGG,0.677 ± 0.086
10,REGALVYWGFLG,0.652 ± 0.018
11,YVVMARWSRWYV,0.522 ± 0.015
12,LKKEKDHKNRNR,0.67 ± 0.016
13,GMLSIHWNIGGT,0.725 ± 0.014
14,KNNVVKIEEEKK,0.751 ± 0.013
15,LLVCVVDREPPI,0.685 ± 0.019
16,NWRCTLGWSWVR,0.706 ± 0.058
17,LFPHSLLPPPFF,0.73 ± 0.042
18,APSTPTPPPPPP,0.686 ± 0.042
19,LPPPLPLPSRHY,0.671 ± 0.06
20,ELCAFLFYPFVV,0.599 ± 0.039
21,GTYPGAGWRYEW,0.694 ± 0.037
22,PPSPALPPSLPV,0.682 ± 0.032
23,RPPAPQTATPHR,0.726 ± 0.013
